One protein from publication PMC12210189, “Crystal structure of the sucrose phosphorylase from Alteromonas mediterranea shows a loop transition in the active site” (Acta Crystallographica Section F: Structural Biology …, 2025) can be followed below.

The series deals with the molecule itself. Briefly: crystal structure; sitting drop, 295 K; protein 6.9 mg/ml in 25 mM HEPES, 50 mM NaCl, 0.5 mM DTT pH 7.0; reservoir 60%(v/v) Tacsimate pH 7.0; apo enzyme; 2.15 Å; two molecules (one dimer) in the asymmetric unit.

B1: sucrose phosphorylase from Alteromonas mediterranea (enzyme)
chain: MGSIRNGVQLITYADRLGDGNIESLTNLLDGPLKGLFKGVHILPFYYPYDGEDAGFDPIDHTTVDERLGDWNNIKKLGESVDIMADLIVNHMSGQSEAFTDVLKKGRESEYWPLFLTKEDVFSGNDQAEIDEQIAKVFRPRPTPFFSDYEVGIETDSTETVPFWTTFTSNQIDIDVESELGKEYLSSILQSFTESNVDLIRLDAAGYAIKRAGSNCFMLEETFEFIEALSKRARTMGMQCLVEIHSHYQTQIDIAARCDSVYDFALPPLVLHTLFTKDASALAHWLSISPRNCFTVLDTHDGIGIVDVGASGDKPGLISADAINALVEQIHVNSNGESKKATGAAANNVDLYQVNCTYYDALGKDDFAYLVARAIQFFSPGIPQVYYGGLLAAHNDMELLANTNVGRDINRPYLTTAMVEDAIQKPVVKGLMQLITLRNENKAFGGAFDVTYTDNTLVLSWSNDGDAASLTVDFAAMDATINTVSNGEESTLSIGALLA
notes: sucrose phosphorylase (AmSP-WT), Alteromonas mediterranea, UniProt S5AE64_9ALTE; synthetic gene in pET-28b; also called AmSP; AmSP-WT; source: E. coli BL21(DE3), purified (Ni-NTA IMAC, size-exclusion chromatography)
In the case of B1, the stoichiometry N (in general, the number of molecules, sites or subunits per partner or assembly) turned out to be 2.
